Results on one molecule are retold here after patent publication US20240010697A1 (CYTIMM THERAPEUTICS, published 2024).

Test [1] has as its target T1, IL-2Rα in a human Fc fusion protein format (ACROBiosystems) (human, UniProt P01589 22-213, limits assumed).
T1 construct: Bought reagent; also called CD25; not shown: human Fc (captured by anti-human IgG Fc)
T1 sequence (looked up): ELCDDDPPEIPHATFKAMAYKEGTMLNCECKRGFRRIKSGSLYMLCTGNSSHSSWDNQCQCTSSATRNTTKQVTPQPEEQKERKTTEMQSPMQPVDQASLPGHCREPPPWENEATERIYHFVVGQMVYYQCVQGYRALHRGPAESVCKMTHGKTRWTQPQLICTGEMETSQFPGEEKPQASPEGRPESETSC
Kind of test: ELISA; EC50 of rhIL2 (reference) over EC50 of ACT5211 on IL-2Rα. As for the experimental part:
(§1) IL-2Rα and IL-2R βγ-human Fc fusion protein constructs (ACRO Biosystems) were each expressed and immobilized by anti-Human IgG Fc (abeam), which were then captured on the surface of wells of a microplate. […] Binding was detected using anti-His or anti-PEG antibody conjugated to horse radish peroxidase (HRP) (Genscript), which was incubated with substrate. The quantification of binding was measured with an absorbance-based microplate reader. Data were analyzed by Graphpas prism9 Software.

Test [2] deals with T1, IL-2Rα in a human Fc fusion protein …. The test is described as follows: BLI (Octet QKe), IL-2Rα-Fc captured on AHC sensors, 1:1 fit. The source says: (§2) IL-2Rα or IL-2Rβ in a human Fc fusion protein format (ACROBiosystems) were captured on anti-human IgG Fc capture (AHC) sensors. […] Dissociation was detected following transfer of sensors into wells containing buffer alone. Data were collected and analyzed by the Octet User Software. For analysis of the kinetics constants, a 1:1 curve fitting model was used.

Test [3] deals with T2, IL-2Rβγ-human Fc fusion protein construct (ACRO Biosystems) (human, UniProt P14784 27-239; P31785 23-262, limits assumed).
T2 construct: not shown: human Fc
T2 sequence (looked up) 1: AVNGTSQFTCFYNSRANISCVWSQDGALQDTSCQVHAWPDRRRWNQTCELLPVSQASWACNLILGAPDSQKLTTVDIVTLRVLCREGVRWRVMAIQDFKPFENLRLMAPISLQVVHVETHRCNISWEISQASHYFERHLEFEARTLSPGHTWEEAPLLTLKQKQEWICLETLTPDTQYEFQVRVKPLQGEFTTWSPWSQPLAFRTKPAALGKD
T2 sequence (looked up) 2: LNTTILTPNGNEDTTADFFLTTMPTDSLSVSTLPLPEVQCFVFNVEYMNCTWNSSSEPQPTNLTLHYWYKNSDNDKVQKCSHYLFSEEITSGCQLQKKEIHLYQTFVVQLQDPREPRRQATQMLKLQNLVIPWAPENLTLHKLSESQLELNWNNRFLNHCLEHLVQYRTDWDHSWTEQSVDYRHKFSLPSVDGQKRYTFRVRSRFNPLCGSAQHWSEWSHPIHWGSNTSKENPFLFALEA
The test is described as follows: ELISA; EC50 of rhIL2 (reference) over EC50 of ACT5211 on IL-2Rβγ. The method, then:
as §1

Test [4] deals with T2, IL-2Rβγ-human Fc fusion protein …. The test is described as follows: ELISA, receptor-Fc captured by anti-human IgG Fc, anti-His or anti-PEG HRP detection. As for the experimental part:
as §1

Test [5] addresses T1, IL-2Rα in a human Fc fusion protein …. The description is as above. As for the experimental part: as §1
The target in test [6] is T2, IL-2Rβγ-human Fc fusion protein …. Kind of test: ELISA, receptor-Fc captured by anti-human IgG Fc on the plate, detection with anti-His or anti-PEG antibody-HRP; unit from the axis (Table 4 of the text prints 21.7). The method, then: as §1
In test [7] the target is T1, IL-2Rα in a human Fc fusion protein …. Kind of test: ELISA; α/βγ EC50 ratio of rhIL2 (reference) over that of ACT5211. The method, then:
as §1

Another test has as its target T3, IL2R αβγ.
T3 construct: Cell-free IL-2Rαβγ on a biosensor; not the cell-borne receptors m18 and m19; also called IL-2Rαβγ (ligand on the sensor)
Kind of test: biosensor kinetics, receptor as ligand on the sensor, IL-2 protein as sample, 1:1 Binding model (legend: Octet QKe; table heads give RU).

For test [8], the target named is T2, IL-2Rβγ-human Fc fusion protein …. The description is as above.
Test [9] has as its target T1, IL-2Rα in a human Fc fusion protein …. Described as above.
The target is the same in test [10]. Kind of test: ELISA; EC50 on IL-2Rα over EC50 on IL-2Rβγ (reference). The method, then: as §1
For test [11] the target is unchanged. Kind of test: ELISA, receptor-Fc captured by anti-human IgG Fc on the plate, detection with anti-His or anti-PEG antibody-HRP; unit from the axis (Table 4 of the text prints 5.1). The method, then:
as §1

For the next test, the target named is T4, IL2R β.
T4 construct: also called IL-2Rβ in a human Fc fusion protein format (ACROBiosystems); CD122; not shown: The human IgG Fc carrier and any linker of the ACROBiosystems fusion
T4 chain: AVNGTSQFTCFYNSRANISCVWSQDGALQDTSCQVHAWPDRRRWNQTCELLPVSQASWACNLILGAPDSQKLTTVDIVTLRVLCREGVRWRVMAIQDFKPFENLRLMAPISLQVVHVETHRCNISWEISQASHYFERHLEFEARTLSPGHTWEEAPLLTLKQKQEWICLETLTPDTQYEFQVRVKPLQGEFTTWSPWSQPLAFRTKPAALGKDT
The test is described as follows: biosensor sensorgrams, receptor on the sensor, IL-2 protein in solution (legend: Octet QKe); axes without units, concentrations not given.
Source text: as §2

B1: ACT5211, IL-2 mutein Y31C + L18M + L19S (PEG20K) (ligand)
chain: APTSSSTKKTQLQLEHLMSDLQMILNGINNCKNPKLTRMLTFKFYMPKKATELKHLQCLEEELKPLEEVLNLAQSKNFHLRPRDLISNINVIVLELKGSETTFMCEYADETATIVEFLNRWITFSQSIISTLT
modifications: maleimide-PEG 20K on Cys 31
notes: rhIL-2 (C125S) background; also called Y31C - PEG20 + L18M + L19S; Y31C-PEG20+L18ML19S; not shown: His-Tag
On to B1, for which the figures for the “EC50 ratio rhIL2/ACT5211” value in [1] and in test [3] were 6.8 and 0.1, respectively. For the same molecule, the dissociation constant Kd in [2] worked out at 91.5 nM; in the test with IL2R αβγ it was 0.289 nM; in [8] it was 15.1 nM; in [9], 250 nM. For the same molecule, the koff in [2] worked out at 0.0388 s⁻¹; with IL2R αβγ it was 0.000761 s⁻¹; in test [8], 0.00147 s⁻¹; in test [9], 0.139 s⁻¹. Also, the association rate constant (kon) in test [2] was found to be 424000 M⁻¹ s⁻¹; with IL2R αβγ it was 2.63e+06 M⁻¹ s⁻¹; in test [8], 97200 M⁻¹ s⁻¹; in test [9], 555000 M⁻¹ s⁻¹. Besides, the 50% effective concentration (EC50) was 21.7 ng/mL in test [4], 5.1 ng/mL in test [5], 2.03 ng/mL in test [6] and 5.01 ng/mL in test [11]. Also, in test [7], the “ratio of the (α/βγ) EC50 ratios, rhIL2/ACT5211” value is 67.7. For the same molecule, in test [10], the “Ratio (α/βγ) of EC50” value stood at 0.3. In addition, the binding result in the test with IL2R β was “no binding (tested: not printed)”.
